Like-named read-outs stand apart in the source and are kept apart here. Bridge positions count the residues as written; N and C are the ends. Peptide text beside a SMILES is read from it. * marks the point of attachment. DOTA = O=C(O)CN1CCN(CC(=O)O)CCN(CC(=O)*)CCN(CC(=O)O)CC1; Ahx = NCCCCCC(=O)O
Test: In vivo biodistribution in MB-231 tumor bearing SCID mice
Details: female, ICR SCID, mouse, iv, total radioactivity; for tissue uptake at 1 h / dose excreted at 1 h: 1 hour post-injection; for tissue uptake at 24 h / dose excreted at 24 h: 24 hours post-injection
From the text: In vivo iodistribution studies. Four- to 5-week old female ICR SCID ([…]) outbred mice were obtained from Taconic (Germantown, N.Y.). The mice were housed five animals per cage in sterile micro isolator cages in a temperature- and humidity-controlled room with a 12-hour light/12-hour dark schedule. The animals were fed autoclaved rodent chow (Ralston Purina Company, St. Louis, Mo.) and water ad libitum. Animals were housed one week prior to inoculation of tumor cells and anesthetized for injections with isoflurane (Baxter Healthcare Corp., Deerfield, Ill.) at a rate of 2.5% with 0.4L oxygen through a non-rebreathing anesthesia vaporizer.
Human breast cancer MB231 and T47D cells were injected on the bilateral subcutaneous (s.c.) flank with ˜5×10^6 cells in a suspension of 100 μl normal sterile saline per injection site. MB231 and T47D cells were allowed to grow in vivo two to three weeks post inoculation developing tumors ranging in sizes from 0.02-1.30 grams. The biodistribution and uptake of ^111In-DOTA-Phe^19-STh or ^111In-DOTA-6-Ahx-Phe^19-STh in tumor bearing SCID mice was studied. The mice (average weight, 25 g) were injected with aliquots (50-100 μl) of the radiolabeled peptide solution (55-75 kBq) in each animal via the tail vein. Tissues, organs and tumors were excised from the animals sacrificed at 1 hr, 4 hrs and 24 hrs p.i. For blocking studies, an access of non-radioactive 6-Ahx-Phe^19-STh (100 μg) was also injected along with the radiolabeled peptide solution. The radioactivity was measured in a NaI counter and the percent-injected dose per organ and the percent-injected dose per gram tissue were calculated (Tables 5 and 6). Animal studies were conducted in accordance with the highest standards of care as outlined in the NIH guide for Care and Use of Laboratory Animals and the Policy and Procedures for Animal Research at the Harry S. Truman Memorial VA Hospital and according to approved protocols.

SMILES: CC(C)C[C@@H]1NC(=O)[C@H](CCC(=O)O)NC(=O)[C@@H]2CSSC[C@@H]3NC(=O)[C@H](C)NC(=O)[C@@H]4CCCN4C(=O)[C@H](CC(N)=O)NC(=O)[C@H](CSSC[C@H](NC(=O)[C@H](Cc4ccc(O)cc4)NC(=O)[C@H](CC(N)=O)NC(=O)[C@H](CO)NC(=O)[C@H](CO)NC(=O)[C@H](CC(N)=O)NC(=O)CCCCCNC(=O)CN4CCN(CC(=O)O)CCN(CC(=O)O)CCN(CC(=O)O)CC4)C(=O)N2)NC(=O)[C@H](CSSC[C@@H](C(=O)N[C@@H](Cc2ccccc2)C(=O)O)NC(=O)CNC(=O)[C@H]([C@@H](C)O)NC3=O)NC1=O [^111In-DOTA-6-Ahx-Phe^19-STh, metal not drawn] ({DOTA-Ahx}-NSSNYCCELCCNPACTGCF-OH; disulfide 6-11, 7-15, 10-18)
- tissue uptake at 1 h (MB-231 tumor, MB-231 tumor, Blocking (100 μg non-radioactive 6-Ahx-Phe^19-STh co-injected), n = 4, read-out: biodistribution, Tumor): 0.84 ± 0.3 %ID/g
- tissue uptake at 1 h (MB-231 tumor, MB-231 tumor, n = 5, read-out: biodistribution, Tumor): 0.7 ± 0.16 %ID/g
- tissue uptake at 4 h (MB-231 tumor, MB-231 tumor, 4 hours post-injection, n = 5, read-out: biodistribution, Tumor): 0.24 ± 0.12 %ID/g
- tissue uptake at 24 h (MB-231 tumor, MB-231 tumor, n = 4, read-out: biodistribution, Tumor): 0.13 ± 0.16 %ID/g
- tissue uptake at 1 h (blood, Blocking (100 μg non-radioactive 6-Ahx-Phe^19-STh co-injected), n = 4, read-out: biodistribution, Blood): 0.85 ± 0.31 %ID/g
- tissue uptake at 1 h (blood, n = 5, read-out: biodistribution, Blood): 0.57 ± 0.13 %ID/g
- tissue uptake at 4 h (blood, 4 hours post-injection, n = 5, read-out: biodistribution, Blood): 0.04 ± 0.05 %ID/g
- tissue uptake at 24 h (blood, n = 4, read-out: biodistribution, Blood): 0.01 ± 0.02 %ID/g
- dose excreted at 24 h (faeces, n = 4, read-out: biodistribution, Feces (Avg % ID)): 14.2 ± 17.3%
- tissue uptake at 1 h (heart, Blocking (100 μg non-radioactive 6-Ahx-Phe^19-STh co-injected), n = 4, read-out: biodistribution, Heart): 0.24 ± 0.11 %ID/g
- tissue uptake at 1 h (heart, n = 5, read-out: biodistribution, Heart): 0.14 ± 0.03 %ID/g
- tissue uptake at 4 h (heart, 4 hours post-injection, n = 5, read-out: biodistribution, Heart): 0.06 ± 0.06 %ID/g
- tissue uptake at 24 h (heart, n = 4, read-out: biodistribution, Heart): 0.03 ± 0.03 %ID/g
- tissue uptake at 1 h (kidney, Blocking (100 μg non-radioactive 6-Ahx-Phe^19-STh co-injected), n = 4, read-out: biodistribution, Kidney): 12.8 ± 2.01 %ID/g
- tissue uptake at 1 h (kidney, n = 5, read-out: biodistribution, Kidney): 4.98 ± 0.67 %ID/g
- tissue uptake at 4 h (kidney, 4 hours post-injection, n = 5, read-out: biodistribution, Kidney): 4.96 ± 0.5 %ID/g
- tissue uptake at 24 h (kidney, n = 4, read-out: biodistribution, Kidney): 2.94 ± 0.42 %ID/g
- tissue uptake at 1 h (large intestine, Blocking (100 μg non-radioactive 6-Ahx-Phe^19-STh co-injected), n = 4, read-out: biodistribution, Large Intestine): 0.17 ± 0.03 %ID/g
- tissue uptake at 1 h (large intestine, n = 5, read-out: biodistribution, Large Intestine): 0.37 ± 0.05 %ID/g
- tissue uptake at 4 h (large intestine, 4 hours post-injection, n = 5, read-out: biodistribution, Large Intestine): 0.66 ± 0.52 %ID/g
- tissue uptake at 24 h (large intestine, n = 4, read-out: biodistribution, Large Intestine): 1.5 ± 2.59 %ID/g
- tissue uptake at 1 h (liver, Blocking (100 μg non-radioactive 6-Ahx-Phe^19-STh co-injected), n = 4, read-out: biodistribution, Liver): 0.33 ± 0.06 %ID/g
- tissue uptake at 1 h (liver, n = 5, read-out: biodistribution, Liver): 0.2 ± 0.03 %ID/g
- tissue uptake at 4 h (liver, 4 hours post-injection, n = 5, read-out: biodistribution, Liver): 0.09 ± 0.02 %ID/g
- tissue uptake at 24 h (liver, n = 4, read-out: biodistribution, Liver): 0.05 ± 0.02 %ID/g
- tissue uptake at 1 h (lung, Blocking (100 μg non-radioactive 6-Ahx-Phe^19-STh co-injected), n = 4, read-out: biodistribution, Lung): 0.49 ± 0.12 %ID/g
- tissue uptake at 1 h (lung, n = 5, read-out: biodistribution, Lung): 0.31 ± 0.04 %ID/g
- tissue uptake at 4 h (lung, 4 hours post-injection, n = 5, read-out: biodistribution, Lung): 0.08 ± 0.05 %ID/g
- tissue uptake at 24 h (lung, n = 4, read-out: biodistribution, Lung): 0.01 ± 0.02 %ID/g
- tissue uptake at 1 h (muscle, Blocking (100 μg non-radioactive 6-Ahx-Phe^19-STh co-injected), n = 4, read-out: biodistribution, Muscle): 0.1 ± 0.08 %ID/g
- tissue uptake at 1 h (muscle, n = 5, read-out: biodistribution, Muscle): 0.1 ± 0.08 %ID/g
- tissue uptake at 4 h (muscle, 4 hours post-injection, n = 5, read-out: biodistribution, Muscle): 0.04 ± 0.05 %ID/g
- tissue uptake at 24 h (muscle, n = 4, read-out: biodistribution, Muscle): 0.02 ± 0.04 %ID/g
- tissue uptake at 1 h (pancreas, Blocking (100 μg non-radioactive 6-Ahx-Phe^19-STh co-injected), n = 4, read-out: biodistribution, Pancreas): 0.21 ± 0.04 %ID/g
- tissue uptake at 1 h (pancreas, n = 5, read-out: biodistribution, Pancreas): 0.13 ± 0.03 %ID/g
- tissue uptake at 4 h (pancreas, 4 hours post-injection, n = 5, read-out: biodistribution, Pancreas): 0.05 ± 0.02 %ID/g
- tissue uptake at 24 h (pancreas, n = 4, read-out: biodistribution, Pancreas): 0.03 ± 0.02 %ID/g
- tissue uptake at 1 h (small intestine, Blocking (100 μg non-radioactive 6-Ahx-Phe^19-STh co-injected), n = 4, read-out: biodistribution, Small Intestine): 0.85 ± 1.19 %ID/g
- tissue uptake at 1 h (small intestine, n = 5, read-out: biodistribution, Small Intestine): 0.99 ± 0.18 %ID/g
- tissue uptake at 4 h (small intestine, 4 hours post-injection, n = 5, read-out: biodistribution, Small Intestine): 0.28 ± 0.07 %ID/g
- tissue uptake at 24 h (small intestine, n = 4, read-out: biodistribution, Small Intestine): 0.21 ± 0.13 %ID/g
- tissue uptake at 1 h (spleen, Blocking (100 μg non-radioactive 6-Ahx-Phe^19-STh co-injected), n = 4, read-out: biodistribution, Spleen): 0.12 ± 0.14 %ID/g
- tissue uptake at 1 h (spleen, n = 5, read-out: biodistribution, Spleen): 0.15 ± 0.1 %ID/g
- tissue uptake at 4 h (spleen, 4 hours post-injection, n = 5, read-out: biodistribution, Spleen): 0.05 ± 0.05 %ID/g
- tissue uptake at 24 h (spleen, n = 4, read-out: biodistribution, Spleen): 0.02 ± 0.04 %ID/g
- tissue uptake at 1 h (stomach, Blocking (100 μg non-radioactive 6-Ahx-Phe^19-STh co-injected), n = 4, read-out: biodistribution, Stomach): 2.18 ± 3.69 %ID/g
- tissue uptake at 1 h (stomach, n = 5, read-out: biodistribution, Stomach): 0.31 ± 0.33 %ID/g
- tissue uptake at 4 h (stomach, 4 hours post-injection, n = 5, read-out: biodistribution, Stomach): 0.03 ± 0.01 %ID/g
- tissue uptake at 24 h (stomach, n = 4, read-out: biodistribution, Stomach): 0.09 ± 0.09 %ID/g
- dose excreted at 1 h (urine, Blocking (100 μg non-radioactive 6-Ahx-Phe^19-STh co-injected), n = 4, read-out: biodistribution, Urine (Avg % ID)): 87.4 ± 4.5%
- dose excreted at 1 h (urine, n = 5, read-out: biodistribution, Urine (Avg % ID)): 89.4 ± 2.9%
- dose excreted at 4 h (urine, 4 hours post-injection, n = 5, read-out: biodistribution, Urine (Avg % ID)): 95.8 ± 1.4%
- dose excreted at 24 h (urine, n = 4, read-out: biodistribution, Urine (Avg % ID)): 82.5 ± 20.3%
